Assay results: article PMC3335097 (2012)
Each block holds one binder with its values, some of them ahead of it. No end group written: not given here. *: point of attachment. MTSSL = spin label (R1), CC1(C)C=C(CS*)C(C)(C)N1[O]

Legend:
[1] = biological target: T1, p15 fragment of Caspase-8-cleaved mouse Bid (tBid) (Mus musculus (Mouse), UniProt P70444); assay: SEC co-elution as 20 kDa complex, with SDS-PAGE and CD melting; no detergent; detergent (DDM/OG) dissociates the fragments, cardiolipin liposomes only partly
T1 chain: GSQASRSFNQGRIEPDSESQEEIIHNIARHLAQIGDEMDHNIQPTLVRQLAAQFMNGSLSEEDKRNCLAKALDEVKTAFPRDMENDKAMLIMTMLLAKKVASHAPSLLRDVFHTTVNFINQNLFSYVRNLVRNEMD

[2] = biological target: T2, p15 fragment of spin labeled cleaved mouse Bid (cBidR1), MTSSL on C126 (Mus musculus (Mouse), UniProt P70444, MTSSL spin label (R1) on C126); assay: DEER EPR (also cw EPR; Trp/Tyr fluorescence at 0.5 uM); no detergent; MTSSL on C30 and C126; 2% OG or 2% DDM dissociates (reversed by OG removal), cardiolipin liposomes only partly
T2 chain: T1 chain

binding result [1]: binds
B1: p7 fragment of Caspase-8-cleaved mouse Bid (protein)
chain: MDSEVSNGSGLGAEHITDLLVFGFLQSSGCTRQELEVLGRELPVQAYWEADLEDELQTD

binding result [2]: binds
B2: p7 fragment of spin labeled cleaved mouse Bid (cBidR1), MTSSL on C30 (protein)
chain: MDSEVSNGSGLGAEHITDLLVFGFLQSSGC(MTSSL)TRQELEVLGRELPVQAYWEADLEDELQTD
